Measured values taken from patent US20190284279A1.

Columns and labels:
[1] = target: human CD19 antigen on the surface of B lymphoma cells (Raji, Daudi, IM-9, Namalwa) (human) (UniProt P15391); experiment: cell-based or functional assay
[2] = target: human CD19 antigen on the surface of B lymphoma cells (Raji, Daudi, IM-9, Namalwa) (human) (UniProt P15391); experiment: flow cytometry on Raji cells; control antibody at 5 µg/ml
[3] = target: human CD19 antigen on the surface of B lymphoma cells (Raji, Daudi, IM-9, Namalwa) (human) (UniProt P15391); experiment: flow cytometry on Raji cells; control antibody at 0.185 µg/ml
[4] = target: human CD19 antigen on the surface of B lymphoma cells (Raji, Daudi, IM-9, Namalwa) (human) (UniProt P15391); experiment: flow cytometry on Raji cells; control antibody at 0.556 µg/ml
[5] = target: human CD3 (CD3ε molecule) on the surface of Jurkat T cells (human) (UniProt P07766); experiment: cell-based or functional assay
[6] = target: human CD19 antigen on the surface of B lymphoma cells (Raji, Daudi, IM-9, Namalwa) (human) (UniProt P15391); experiment: flow cytometry on Raji cells; control antibody at 1.667 µg/ml
[7] = target: human CD19 antigen on the surface of B lymphoma cells (Raji, Daudi, IM-9, Namalwa) (human) (UniProt P15391); experiment: flow cytometry on Raji cells; control antibody at 15 µg/ml
[8] = target: human CD3 (CD3ε molecule) on the surface of Jurkat T cells (human) (UniProt P07766); experiment: flow cytometry on Jurkat cells

BLI-193 (tandem single chain antibody structure, blinatumomab) (bispecific antibody)
ED50 of killing of Daudi cells by human PBMC (Fluo 3-AM release) [1]: 2.57 ng/mL
ED50 of killing of Namalwa cells by human PBMC (Fluo 3-AM release) [1]: 0.107 ng/mL
ED50 of killing of Raji cells by human PBMC (Fluo 3-AM release) [1]: 0.0868 ng/mL

OKT3 monoclonal antibody (mouse anti-human CD3 monoclonal antibody)
average fluorescence value [2]: 3460
average fluorescence value [3]: 3860
average fluorescence value [4]: 3390
ED50 of CD69 expression (Mean FL2-A) on Jurkat E6-1 cells co-cultured with Raji cells (10:1) [5]: 1280 ng/mL
average fluorescence value [6]: 3570
average fluorescence value [7]: 3710
EC50 [8]: 6.09 nM
